From paper PMC8024259, “The Pah-R261Q mouse reveals oxidative stress associated with amyloid-like hepatic aggregation of mutant phenylalanine hydroxylase” (Nature Communications, 2021)
Positions count from the first letter of the chain named. In names and notes the source's numbering stands.

B1: Recombinant human WT-PAH (phenylalanine hydroxylase) (enzyme, UniProt P00439 1-452, looked up)
chain: MSTAVLENPGLGRKLSDFGQETSYIEDNCNQNGAISLIFSLKEEVGALAKVLRLFEENDVNLTHIESRPSRLKKDEYEFFTHLDKRSLPALTNIIKILRHDIGATVHELSRDKKKDTVPWFPRTIQELDRFANQILSYGAELDADHPGFKDPVYRARRKQFADIAYNYRHGQPIPRVEYMEEEKKTWGTVFKTLKSLYKTHACYEYNHIFPLLEKYCGFHEDNIPQLEDVSQFLQTCTGFRLRPVAGLLSSRDFLGGLAFRVFHCTQYIRHGSKPMYTPEPDICHELLGHVPLFSDRSFAQFSQEIGLASLGAPDEYIEKLATIYWFTVEFGLCKQGDSIKAYGAGLLSSFGELQYCLSEKPKLLPLELEKTAIQNYTVTEFQPLYYVAESFNDAKEKVRNFAATIPRPFSVRYDPYTQRIEVLDNTQQLKILADSINSEIGILCSALQKIK
notes: phenylalanine hydroxylase, human, expressed from pMAL as MBP-(pep)xa-PAH and cleaved with Factor Xa; source: E. coli TB1, purified (amylose resin, Factor Xa cleavage, SEC); not shown: MBP, N-terminal, cleaved
B2: Recombinant human p.R261Q-PAH (phenylalanine hydroxylase, p.Arg261Gln variant) (enzyme, UniProt P00439 1-452, looked up)
chain: B1 chain with R261Q
notes: phenylalanine hydroxylase, human, PKU patient variant p.R261Q, expressed from pMAL as MBP-(pep)xa-PAH and cleaved with Factor Xa; Variant that occurs in PKU patients (c.782G>A); also called p.PAH-R261Q; source: E. coli TB1, purified (amylose resin, Factor Xa cleavage, SEC); not shown: MBP, N-terminal, cleaved

Molecular target: the molecule itself
Test: SEC; preparative isolation of the tetramer after Factor Xa cleavage; Superdex HiLoad 16/600 200, 20 mM Hepes pH 7, 200 mM NaCl

Protein | stoichiometry N
B1 | 4
B2 | 4
